Data taken from article PMC11375530, “The 8‐oxoguanine DNA glycosylase‐synaptotagmin 7 pathway increases extracellular vesicle release and promotes tumour metastasis during oxidative stress”.

Target: OGG1 (8-oxoguanine DNA glycosylase) (UniProt O15527 1-345)
Test: EMSA; EMSA: DNA-binding buffer (composition not given), 10 min on ice then 10 min at 37 C, 7% native PAGE in 1x TBE; pull-down: 4 C, 12 h, 1 mM PMSF, PBS washes
Details: protein: commercial; label: 5'-FAM on strand 2; blunt

OGG1 (8-oxoguanine DNA glycosylase), sequence (O15527 whole entry): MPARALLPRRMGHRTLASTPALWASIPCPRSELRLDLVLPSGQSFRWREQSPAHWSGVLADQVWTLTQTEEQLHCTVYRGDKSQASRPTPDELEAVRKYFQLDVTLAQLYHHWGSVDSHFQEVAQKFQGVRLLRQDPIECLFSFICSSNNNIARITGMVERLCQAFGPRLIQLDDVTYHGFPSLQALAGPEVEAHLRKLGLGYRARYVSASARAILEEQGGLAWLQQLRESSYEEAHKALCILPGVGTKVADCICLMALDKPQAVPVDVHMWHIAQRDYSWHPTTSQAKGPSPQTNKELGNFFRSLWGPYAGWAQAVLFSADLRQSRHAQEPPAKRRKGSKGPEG

B1: 8-oxoG-SYT7 (FAM) (dsDNA)
DNA 1: CGGGCGGGCGGGAGGGCTGGCGGGCGGCCCCC
DNA 2: GGGGGCCGCCCGCCAGCCCTCCCGCCCGCCCG
modifications: 8-oxoG at position 12 of strand 1 (printed ...CGGoGAGGG...)
binding result: binds
